Measured values published in patent US20220202905A1, “COMPOSITION FOR PREVENTING OR TREATING NEUROTROPHIC KERATITIS WHICH CONTAINS PACAP PEPTIDE OR STABILIZED PACAP PEPTIDE” (SENJU PHARMACEUTICAL CO., LTD., priority 2019, published 2022).
Square brackets hold non-standard residues; d marks the D form. Ala(1H-tetrazol-5-yl) = N[C@@H](Cc1nnn[nH]1)C(=O)O

T1: PAC1 receptor (UniProt P41586 21-468, limits assumed)
T1 sequence (looked up): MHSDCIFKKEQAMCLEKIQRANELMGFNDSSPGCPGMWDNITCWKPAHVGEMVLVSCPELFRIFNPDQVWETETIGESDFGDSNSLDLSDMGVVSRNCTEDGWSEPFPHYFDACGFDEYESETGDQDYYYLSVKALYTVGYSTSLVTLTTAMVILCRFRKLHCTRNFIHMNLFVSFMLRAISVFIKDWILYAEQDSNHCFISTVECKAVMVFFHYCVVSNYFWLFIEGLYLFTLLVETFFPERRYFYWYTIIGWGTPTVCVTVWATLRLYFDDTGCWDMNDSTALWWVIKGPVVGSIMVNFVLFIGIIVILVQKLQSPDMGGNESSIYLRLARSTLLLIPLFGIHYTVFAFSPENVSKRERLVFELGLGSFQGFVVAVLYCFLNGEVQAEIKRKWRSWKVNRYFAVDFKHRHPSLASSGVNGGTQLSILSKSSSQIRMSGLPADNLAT

T2: VPAC1 receptor (UniProt P32241 31-457, limits assumed)
T2 sequence (looked up): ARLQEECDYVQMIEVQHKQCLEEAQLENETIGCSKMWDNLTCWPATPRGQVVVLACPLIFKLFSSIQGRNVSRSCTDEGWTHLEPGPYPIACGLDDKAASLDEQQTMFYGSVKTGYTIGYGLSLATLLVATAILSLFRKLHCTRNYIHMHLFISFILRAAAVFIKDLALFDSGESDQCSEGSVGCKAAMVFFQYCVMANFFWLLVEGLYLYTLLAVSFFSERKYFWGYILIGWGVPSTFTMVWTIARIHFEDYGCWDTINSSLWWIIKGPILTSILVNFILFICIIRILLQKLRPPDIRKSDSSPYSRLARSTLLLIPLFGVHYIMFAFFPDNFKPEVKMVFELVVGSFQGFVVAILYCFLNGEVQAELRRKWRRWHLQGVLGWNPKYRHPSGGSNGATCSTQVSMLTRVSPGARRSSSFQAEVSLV


How the values were obtained:
[1] = target: T1, PAC1 receptor; assay: cell-based or functional assay
[2] = target: T2, VPAC1 receptor; assay: cell-based or functional assay

| Binder | EC50 (PAC1R), cAMP inducing effect [1] | EC50 (VPAC1R), cAMP inducing effect [2] |
| --- | --- | --- |
| Ac-HA[Ala(1H-tetrazol-5-yl)]GIFT[Ala(1H-tetrazol-5-yl)]SYSRYRKQAAVKKYLAAVL-NH2 (SMILES CC[C@H](C)[C@H](NC(=O)CNC(=O)[C@H](Cc1nnn[nH]1)NC(=O)[C@H](C)NC(=O)[C@H](Cc1c[nH]cn1)NC(C)=O)C(=O)N[C@@H](Cc1ccccc1)C(=O)N[C@H](C(=O)N[C@@H](Cc1nnn[nH]1)C(=O)N[C@@H](CO)C(=O)N[C@@H](Cc1ccc(O)cc1)C(=O)N[C@@H](CO)C(=O)N[C@@H](CCCNC(=N)N)C(=O)N[C@@H](Cc1ccc(O)cc1)C(=O)N[C@@H](CCCNC(=N)N)C(=O)N[C@@H](CCCCN)C(=O)N[C@@H](CCC(N)=O)C(=O)N[C@@H](C)C(=O)N[C@@H](C)C(=O)N[C@H](C(=O)N[C@@H](CCCCN)C(=O)N[C@@H](CCCCN)C(=O)N[C@@H](Cc1ccc(O)cc1)C(=O)N[C@@H](CC(C)C)C(=O)N[C@@H](C)C(=O)N[C@@H](C)C(=O)N[C@H](C(=O)N[C@@H](CC(C)C)C(N)=O)C(C)C)C(C)C)[C@@H](C)O) [Peptide 25] | 88 pM | 28 pM |
| HSXAIFTXSYSRYRKQLAVKKYLAAVL (N-terminal acetyl (Ac-); Tz (aspartic acid with carboxyl group replaced by tetrazole) at positions 3 and 8; C-terminal amide (NH2)) [Peptide 23] | 79 pM | 72 pM |
| Ac-HA[Ala(1H-tetrazol-5-yl)]GIFT[Ala(1H-tetrazol-5-yl)]AYSRYRKQLAVKKYLAAVL-NH2 (SMILES CC[C@H](C)[C@H](NC(=O)CNC(=O)[C@H](Cc1nnn[nH]1)NC(=O)[C@H](C)NC(=O)[C@H](Cc1c[nH]cn1)NC(C)=O)C(=O)N[C@@H](Cc1ccccc1)C(=O)N[C@H](C(=O)N[C@@H](Cc1nnn[nH]1)C(=O)N[C@@H](C)C(=O)N[C@@H](Cc1ccc(O)cc1)C(=O)N[C@@H](CO)C(=O)N[C@@H](CCCNC(=N)N)C(=O)N[C@@H](Cc1ccc(O)cc1)C(=O)N[C@@H](CCCNC(=N)N)C(=O)N[C@@H](CCCCN)C(=O)N[C@@H](CCC(N)=O)C(=O)N[C@@H](CC(C)C)C(=O)N[C@@H](C)C(=O)N[C@H](C(=O)N[C@@H](CCCCN)C(=O)N[C@@H](CCCCN)C(=O)N[C@@H](Cc1ccc(O)cc1)C(=O)N[C@@H](CC(C)C)C(=O)N[C@@H](C)C(=O)N[C@@H](C)C(=O)N[C@H](C(=O)N[C@@H](CC(C)C)C(N)=O)C(C)C)C(C)C)[C@@H](C)O) [Peptide 24] | 83 pM | 88 pM |
| Ac-HS[Ala(1H-tetrazol-5-yl)]GIFT[Ala(1H-tetrazol-5-yl)]SYSRYRKAAAVKKYLAAVL-NH2 (SMILES CC[C@H](C)[C@H](NC(=O)CNC(=O)[C@H](Cc1nnn[nH]1)NC(=O)[C@H](CO)NC(=O)[C@H](Cc1c[nH]cn1)NC(C)=O)C(=O)N[C@@H](Cc1ccccc1)C(=O)N[C@H](C(=O)N[C@@H](Cc1nnn[nH]1)C(=O)N[C@@H](CO)C(=O)N[C@@H](Cc1ccc(O)cc1)C(=O)N[C@@H](CO)C(=O)N[C@@H](CCCNC(=N)N)C(=O)N[C@@H](Cc1ccc(O)cc1)C(=O)N[C@@H](CCCNC(=N)N)C(=O)N[C@@H](CCCCN)C(=O)N[C@@H](C)C(=O)N[C@@H](C)C(=O)N[C@@H](C)C(=O)N[C@H](C(=O)N[C@@H](CCCCN)C(=O)N[C@@H](CCCCN)C(=O)N[C@@H](Cc1ccc(O)cc1)C(=O)N[C@@H](CC(C)C)C(=O)N[C@@H](C)C(=O)N[C@@H](C)C(=O)N[C@H](C(=O)N[C@@H](CC(C)C)C(N)=O)C(C)C)C(C)C)[C@@H](C)O) [Peptide 28] | 84 pM | 29 pM |
| Ac-HS[Ala(1H-tetrazol-5-yl)]GIFT[Ala(1H-tetrazol-5-yl)]SYSRYRRQLAVRRYLAAVLGRR-NH2 (SMILES CC[C@H](C)[C@H](NC(=O)CNC(=O)[C@H](Cc1nnn[nH]1)NC(=O)[C@H](CO)NC(=O)[C@H](Cc1c[nH]cn1)NC(C)=O)C(=O)N[C@@H](Cc1ccccc1)C(=O)N[C@H](C(=O)N[C@@H](Cc1nnn[nH]1)C(=O)N[C@@H](CO)C(=O)N[C@@H](Cc1ccc(O)cc1)C(=O)N[C@@H](CO)C(=O)N[C@@H](CCCNC(=N)N)C(=O)N[C@@H](Cc1ccc(O)cc1)C(=O)N[C@@H](CCCNC(=N)N)C(=O)N[C@@H](CCCNC(=N)N)C(=O)N[C@@H](CCC(N)=O)C(=O)N[C@@H](CC(C)C)C(=O)N[C@@H](C)C(=O)N[C@H](C(=O)N[C@@H](CCCNC(=N)N)C(=O)N[C@@H](CCCNC(=N)N)C(=O)N[C@@H](Cc1ccc(O)cc1)C(=O)N[C@@H](CC(C)C)C(=O)N[C@@H](C)C(=O)N[C@@H](C)C(=O)N[C@H](C(=O)N[C@@H](CC(C)C)C(=O)NCC(=O)N[C@@H](CCCNC(=N)N)C(=O)N[C@@H](CCCNC(=N)N)C(N)=O)C(C)C)C(C)C)[C@@H](C)O) [Peptide 22] | 130 pM | 457 pM |

Further lines, results first:

| EC50 (PAC1R), cAMP inducing effect [1] | EC50 (VPAC1R), cAMP inducing effect [2] | Binder |
| --- | --- | --- |
| 60 pM | 44 pM | Ac-HS[Ala(1H-tetrazol-5-yl)]GIFT[Ala(1H-tetrazol-5-yl)]AYSRYRKQAAVKKYLAAVL-NH2 (SMILES CC[C@H](C)[C@H](NC(=O)CNC(=O)[C@H](Cc1nnn[nH]1)NC(=O)[C@H](CO)NC(=O)[C@H](Cc1c[nH]cn1)NC(C)=O)C(=O)N[C@@H](Cc1ccccc1)C(=O)N[C@H](C(=O)N[C@@H](Cc1nnn[nH]1)C(=O)N[C@@H](C)C(=O)N[C@@H](Cc1ccc(O)cc1)C(=O)N[C@@H](CO)C(=O)N[C@@H](CCCNC(=N)N)C(=O)N[C@@H](Cc1ccc(O)cc1)C(=O)N[C@@H](CCCNC(=N)N)C(=O)N[C@@H](CCCCN)C(=O)N[C@@H](CCC(N)=O)C(=O)N[C@@H](C)C(=O)N[C@@H](C)C(=O)N[C@H](C(=O)N[C@@H](CCCCN)C(=O)N[C@@H](CCCCN)C(=O)N[C@@H](Cc1ccc(O)cc1)C(=O)N[C@@H](CC(C)C)C(=O)N[C@@H](C)C(=O)N[C@@H](C)C(=O)N[C@H](C(=O)N[C@@H](CC(C)C)C(N)=O)C(C)C)C(C)C)[C@@H](C)O) [Peptide 27] |
| 66 pM | 75 pM | Ac-HS[Ala(1H-tetrazol-5-yl)]GIFT[Ala(1H-tetrazol-5-yl)]AYSRYRKALAVKKYLAAVL-NH2 (SMILES CC[C@H](C)[C@H](NC(=O)CNC(=O)[C@H](Cc1nnn[nH]1)NC(=O)[C@H](CO)NC(=O)[C@H](Cc1c[nH]cn1)NC(C)=O)C(=O)N[C@@H](Cc1ccccc1)C(=O)N[C@H](C(=O)N[C@@H](Cc1nnn[nH]1)C(=O)N[C@@H](C)C(=O)N[C@@H](Cc1ccc(O)cc1)C(=O)N[C@@H](CO)C(=O)N[C@@H](CCCNC(=N)N)C(=O)N[C@@H](Cc1ccc(O)cc1)C(=O)N[C@@H](CCCNC(=N)N)C(=O)N[C@@H](CCCCN)C(=O)N[C@@H](C)C(=O)N[C@@H](CC(C)C)C(=O)N[C@@H](C)C(=O)N[C@H](C(=O)N[C@@H](CCCCN)C(=O)N[C@@H](CCCCN)C(=O)N[C@@H](Cc1ccc(O)cc1)C(=O)N[C@@H](CC(C)C)C(=O)N[C@@H](C)C(=O)N[C@@H](C)C(=O)N[C@H](C(=O)N[C@@H](CC(C)C)C(N)=O)C(C)C)C(C)C)[C@@H](C)O) [Peptide 26] |
| 102 pM | 268 pM | Ac-HS[Ala(1H-tetrazol-5-yl)]GIFT[Ala(1H-tetrazol-5-yl)]SYSRYRRQLAVRRYLAAVL-NH2 (SMILES CC[C@H](C)[C@H](NC(=O)CNC(=O)[C@H](Cc1nnn[nH]1)NC(=O)[C@H](CO)NC(=O)[C@H](Cc1c[nH]cn1)NC(C)=O)C(=O)N[C@@H](Cc1ccccc1)C(=O)N[C@H](C(=O)N[C@@H](Cc1nnn[nH]1)C(=O)N[C@@H](CO)C(=O)N[C@@H](Cc1ccc(O)cc1)C(=O)N[C@@H](CO)C(=O)N[C@@H](CCCNC(=N)N)C(=O)N[C@@H](Cc1ccc(O)cc1)C(=O)N[C@@H](CCCNC(=N)N)C(=O)N[C@@H](CCCNC(=N)N)C(=O)N[C@@H](CCC(N)=O)C(=O)N[C@@H](CC(C)C)C(=O)N[C@@H](C)C(=O)N[C@H](C(=O)N[C@@H](CCCNC(=N)N)C(=O)N[C@@H](CCCNC(=N)N)C(=O)N[C@@H](Cc1ccc(O)cc1)C(=O)N[C@@H](CC(C)C)C(=O)N[C@@H](C)C(=O)N[C@@H](C)C(=O)N[C@H](C(=O)N[C@@H](CC(C)C)C(N)=O)C(C)C)C(C)C)[C@@H](C)O) [Peptide 21] |
